PMC6450106

Target: CAP256 gp140-FL-IP (soluble Env) (HIV-1 (CAP256 SU, subtype C))
Assay: native gel or EMSA; NativePAGE Novex 3 to 12% bis-Tris gels, Coomassie stain or anti-gp120 blot, molecular weight against NativeMark standard; protein after GNL affinity and SEC (Superdex 200 HiLoad 16/600)

For “CAP256 gp140-FL-IP (soluble Env) (domain or fragment)”, the stoichiometry N was 3.
